Experiment [1] has as its target T1, rabbit CD19 (native, on the surface of rabbit B-cells) (rabbit).
T1 construct: Natural CD19 on rabbit PBMC / B-cells; also called rbCD19; native rabbit CD19
T1 chain: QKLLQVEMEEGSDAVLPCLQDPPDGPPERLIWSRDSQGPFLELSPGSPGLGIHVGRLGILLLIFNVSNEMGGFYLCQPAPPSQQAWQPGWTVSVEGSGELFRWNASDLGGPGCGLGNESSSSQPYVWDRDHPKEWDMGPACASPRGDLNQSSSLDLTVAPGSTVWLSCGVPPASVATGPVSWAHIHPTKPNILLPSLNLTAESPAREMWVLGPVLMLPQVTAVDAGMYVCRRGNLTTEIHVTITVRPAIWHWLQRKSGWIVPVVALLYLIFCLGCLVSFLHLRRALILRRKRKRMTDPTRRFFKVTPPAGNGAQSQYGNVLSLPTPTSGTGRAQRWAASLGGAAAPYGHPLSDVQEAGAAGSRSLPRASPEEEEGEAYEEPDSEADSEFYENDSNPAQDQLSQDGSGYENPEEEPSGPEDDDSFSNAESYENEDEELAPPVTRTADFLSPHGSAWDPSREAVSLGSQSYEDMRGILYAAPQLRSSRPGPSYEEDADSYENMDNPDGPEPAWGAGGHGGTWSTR
Put plainly: FACS, rabbit PBMC. As for the experimental part:
FACS analysis was applied for screening of hybridomas and to identify those hybridomas that secrete antibodies against rabbit CD19. All IgG-producing hybridomas were screened by FACS analysis of rabbit peripheral blood mononuclear cells (PBMCs) double stained with a rabbit IgM binding antibody for B-cell identification.
Freshly isolated rabbit (PBMCs) were incubated with FITC labeled anti-rabbit IgM antibody (Southern Biotech) and IgG-positive hybridoma supernatants on ice. After 45 min. incubation the PBMCs were washed once with ice cold PBS and resuspended in an PE-labeled anti-mouse IgG antibody (Invitrogen) binding the murine IgG of the hybridoma supernatant. After another 45 min. incubation on ice the cells were washed again once with ice cold PBS. Finally, the PBMCs were resuspended in ice cold PBS and immediately subjected to the FACS analyses. DAPI-HCl in a concentration of 2 μg/ml (Cayman) was added prior to the FACS analyses to discriminate between dead and live cells. A Becton Dickinson FACS Canto II device equipped with a computer and the FACSDiva software (BD Biosciences) were used for the analysis.
(In general: A flow cytometer gives signals particle by particle.)

Experiment [2] addresses T2, rabbit-CD19-GPI anchor-FLAG-tag fusion polypeptide (on transfected CHO-S / HEK293F cells) (rabbit; human).
T2 sequence: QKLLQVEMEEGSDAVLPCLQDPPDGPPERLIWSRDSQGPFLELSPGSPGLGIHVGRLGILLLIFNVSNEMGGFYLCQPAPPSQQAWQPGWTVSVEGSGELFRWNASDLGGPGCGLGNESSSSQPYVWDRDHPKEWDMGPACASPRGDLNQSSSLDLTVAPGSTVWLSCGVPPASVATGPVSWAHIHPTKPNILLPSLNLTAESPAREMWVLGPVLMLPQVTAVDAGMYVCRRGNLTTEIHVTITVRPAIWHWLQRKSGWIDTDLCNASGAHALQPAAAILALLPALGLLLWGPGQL
Nature of the experiment: FACS, CHO-S transfected with CD19 expression plasmid, detection with anti-mIgG-APC.

For experiment [3] the target is unchanged. Put plainly: FACS, HEK293F transfected with CD19 expression plasmid, detection with anti-mIgG-APC.

From patent publication US20220135672A1 (Hoffmann-La Roche, published 2022) come the findings set out here.

B1: antibody 1H2 (mouse monoclonal anti-rabbit CD19 antibody) (antibody, mouse IgG2a, kappa, V domains shown)
VH: QVQLQQSGPEVVKPGASVRMSCKASGYIFTNHYIHWMKQRPGQGLEWVGCIYPGNVNSNYNEKFKGKATLTADKSSSTAYLQLSSLTSEDSAVYFCARGGYYGSSYSWFAYWGQGTLVIVSA
VL: DIVMTQSPATLSVTPGDRVSLSCRASQSISDFLHWYQQSSHESPRLLIKYASQSISGIPSRFSGSGSGSDFTLTINSVEPEDVGVYYCQNGHSFPYTFGGGTNLEIKR
notes: Mouse IgG from hybridoma; the chains are built here from variable domain plus constant region so that no leader is included; Tested as hybridoma supernatant, and later purified and labelled with Alexa 647 or biotin; also called clone 1H2; anti-CD19 A647
As to B1, the “Ratio Q2/IgM (%)” value in experiment [1] amounted to 93.2%. In experiment [2], this molecule showed a stained cells, absolute [n] of 975 n and a stained cells, relative to total number [%] of 4.6%. In experiment [3], this molecule came in with a stained cells, absolute [n] of 7290 n and a stained cells, relative to total number [%] of 35.9%.
